Assay results taken from the supplement of paper PMC9170038.

System: K4 kissing-loop RNA reporter
Test: apparent KD of K4 kissing-loop reporter; higher = weaker reporter binding
Conditions: Eterna round: R107
Procedure: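 RNA-MaP round R107: designed RNA switches with theophylline, tryptophan, arginine or FMN aptamers are transcribed on-chip within common flanks. They are titrated with a labelled K4 kissing-loop RNA reporter in RNA-MaP buffer (100 mM Tris pH 7.5, 80 mM KCl, 4 mM MgCl2), without ligand or with the indicated ligand. Median apparent KD per design.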

[1] = input ligand: theophylline 20 uM
[2] = input ligand: tryptophan 2.4 mM
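Further: bound reporter read as fluorescence of individual clusters on recovered sequencing chips by microscopy, with normalized cluster intensities fitted with a binding model.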

UACUAUAUUCUGUCGUUUUUAUUAGUUUGUCAGGAUAUCGUUUAUUCGAGAAGGGACACUAUCUAGUGAUGUUAGAUAUUUCUUU [JR_Nu3_ExcFMNA_Sub030]
apparent KD of K4 kissing-loop reporter (input ligand: FMN 200 uM): 77.9 nM
apparent KD of K4 kissing-loop reporter (input ligand: arginine 13.2 mM): 102 nM
apparent KD of K4 kissing-loop reporter (input ligand: none): 92.7 nM
apparent KD of K4 kissing-loop reporter [1]: 93.2 nM
apparent KD of K4 kissing-loop reporter [2]: 72.9 nM

CAUCUGGACCAAGGAUAUGUGGGCAUAAUAAAAUUACCACCUUAUUUGCAGUAAGUGAUGUUUAACACAGAAGGUGGACAUAGAC [theeternabot_exclusion_KL_FMN_B_10]
apparent KD of K4 kissing-loop reporter (input ligand: FMN 200 uM): 1170 nM
apparent KD of K4 kissing-loop reporter (input ligand: arginine 13.2 mM): 725 nM
apparent KD of K4 kissing-loop reporter (input ligand: none): 1170 nM
apparent KD of K4 kissing-loop reporter [1]: 701 nM
apparent KD of K4 kissing-loop reporter [2]: 822 nM

AAAAUAAACCAGUGAUGUUGGUGUCUAGAUACCAGCGACGAAAGUCGCCCUUGGCAGCUGUGGACGUACAAAAUAAGUACGUCCU [MatMod 5 - Jieux - Same State - Theophylline A]
apparent KD of K4 kissing-loop reporter (input ligand: FMN 200 uM): 564 nM
apparent KD of K4 kissing-loop reporter (input ligand: arginine 13.2 mM): 327 nM
apparent KD of K4 kissing-loop reporter (input ligand: none): 541 nM
apparent KD of K4 kissing-loop reporter [1]: 480 nM
apparent KD of K4 kissing-loop reporter [2]: 472 nM

AGGAUCCGUCGACAAAAGUCGACAUAAACCGAGGAUAUGACGAAAGUCAGAAGGUGGUCAUAAGACCAGUGAUGUUGGUGGAUCC [FmnA 14 #SwitchBubble #K4Late]
apparent KD of K4 kissing-loop reporter (input ligand: FMN 200 uM): 1250 nM
apparent KD of K4 kissing-loop reporter (input ligand: arginine 13.2 mM): 282 nM
apparent KD of K4 kissing-loop reporter (input ligand: none): 494 nM
apparent KD of K4 kissing-loop reporter [1]: 318 nM
apparent KD of K4 kissing-loop reporter [2]: 305 nM

UGAUACCAGACGGCCGCCACUGCGCCAGUCAAUGACUGAGCGCGGUGGCGCUCAGUGAUGUUGUGCAGGACCGGGUCUGGUAUCU [Mod of Eli's TrypBX 8 v6]
apparent KD of K4 kissing-loop reporter (input ligand: FMN 200 uM): 476 nM
apparent KD of K4 kissing-loop reporter (input ligand: arginine 13.2 mM): 383 nM
apparent KD of K4 kissing-loop reporter (input ligand: none): 410 nM
apparent KD of K4 kissing-loop reporter [1]: 364 nM
apparent KD of K4 kissing-loop reporter [2]: 398 nM

UGGAGUUGACGAAAAGUCAACUCCUGAGAAGGAGCGGACGAAAGUCCAGGUAGGUCGCUCACUACCAGUGAUGUUGGUAAUUCAA [#OpenEnded 3]
apparent KD of K4 kissing-loop reporter (input ligand: FMN 200 uM): 269 nM
apparent KD of K4 kissing-loop reporter (input ligand: arginine 13.2 mM): 284 nM
apparent KD of K4 kissing-loop reporter (input ligand: none): 277 nM
apparent KD of K4 kissing-loop reporter [1]: 272 nM
apparent KD of K4 kissing-loop reporter [2]: 234 nM

UGUACCGAGUCAGGAUAUGGCGUCGAAAGACGAAUGCUAGUGAUGUUAGGGAUCUGCGAAAGCAGUCCAGAAGGGACUUGGUACU [FmnBS 26 G36]
apparent KD of K4 kissing-loop reporter (input ligand: FMN 200 uM): 381 nM
apparent KD of K4 kissing-loop reporter (input ligand: arginine 13.2 mM): 471 nM
apparent KD of K4 kissing-loop reporter (input ligand: none): 653 nM
apparent KD of K4 kissing-loop reporter [1]: 634 nM
apparent KD of K4 kissing-loop reporter [2]: 649 nM

UGUCAUUGGUCGGCCGCCACUGAAAUAAAAGAGUGAUGUUCUUAAAAGACGGACAAAGUCUGUCAUAGGACCGGGACCGAUGACU [TrypBS 24 #SwitchBubble #StaticStem]
apparent KD of K4 kissing-loop reporter (input ligand: FMN 200 uM): 662 nM
apparent KD of K4 kissing-loop reporter (input ligand: arginine 13.2 mM): 558 nM
apparent KD of K4 kissing-loop reporter (input ligand: none): 473 nM
apparent KD of K4 kissing-loop reporter [1]: 369 nM
apparent KD of K4 kissing-loop reporter [2]: 380 nM

CCUAUCUCAUACGAUACCAGUCAAUGAUCUUUGAUCAAUGCCAUCACCGAGUGAUGUUCGGACCCUUGGCAGCGUAUGAGAUAGG [whbob_Ex_Theo_B_sa103]
apparent KD of K4 kissing-loop reporter (input ligand: FMN 200 uM): 277 nM
apparent KD of K4 kissing-loop reporter (input ligand: arginine 13.2 mM): 225 nM
apparent KD of K4 kissing-loop reporter (input ligand: none): 267 nM
apparent KD of K4 kissing-loop reporter [1]: 452 nM
apparent KD of K4 kissing-loop reporter [2]: 247 nM

GUUGAUCAUGGAAGGAGCGCCCAUUGUCGACACGAGUGAUGUUCGUGUCGUUAAUUAUGAGGGCAGGUAGGUCGCCGUGUGCUUU [Soqugebi]
apparent KD of K4 kissing-loop reporter (input ligand: FMN 200 uM): 144 nM
apparent KD of K4 kissing-loop reporter (input ligand: arginine 13.2 mM): 103 nM
apparent KD of K4 kissing-loop reporter (input ligand: none): 130 nM
apparent KD of K4 kissing-loop reporter [1]: 115 nM
apparent KD of K4 kissing-loop reporter [2]: 128 nM

GGCACUUUUGCUUGGAACCGUCAAGCUCGAUAGGAUAUGCCGAAAGGCAGAAGGAUUGACCUACAGAGUGAUGUUCUGCGUGCCU
apparent KD of K4 kissing-loop reporter (input ligand: FMN 200 uM): 791 nM
apparent KD of K4 kissing-loop reporter (input ligand: arginine 13.2 mM): 378 nM
apparent KD of K4 kissing-loop reporter (input ligand: none): 830 nM
apparent KD of K4 kissing-loop reporter [1]: 288 nM
apparent KD of K4 kissing-loop reporter [2]: 408 nM

AGUGGACGUUACCGGAGUGAUGUUUCGGAUACCAGACACGAAAGUGUCCCUUGGCAGCCGUAGUGAUGUUACGGAGUUCACUAAA [KL-XTheo-A12 #KL 2]
apparent KD of K4 kissing-loop reporter (input ligand: FMN 200 uM): 125 nM
apparent KD of K4 kissing-loop reporter (input ligand: arginine 13.2 mM): 61.5 nM
apparent KD of K4 kissing-loop reporter (input ligand: none): 103 nM
apparent KD of K4 kissing-loop reporter [1]: 88.7 nM
apparent KD of K4 kissing-loop reporter [2]: 85.1 nM

GCGCCGGUCUGCUUUAGAGUGAUGUUCUCCCGAGGACCGGUACGGCCGCCACUCGGCCAACGCUAUUAUCUUUGAUCCGCGGUGC [theeternabot_exclusion_KL_Trp_A_41]
apparent KD of K4 kissing-loop reporter (input ligand: FMN 200 uM): 1300 nM
apparent KD of K4 kissing-loop reporter (input ligand: arginine 13.2 mM): 840 nM
apparent KD of K4 kissing-loop reporter (input ligand: none): 1000 nM
apparent KD of K4 kissing-loop reporter [1]: 1120 nM
apparent KD of K4 kissing-loop reporter [2]: 948 nM

AUGACGGGUAGUGAUGUUAUCCACGAUGGGAAGGAUAUCAACCGUGUGAGAAGGUCCUUAUCGGUGCGGCACAUGCAGGUACUAC [theeternabot_sameState_KL_FMN_A_41]
apparent KD of K4 kissing-loop reporter (input ligand: FMN 200 uM): 215 nM
apparent KD of K4 kissing-loop reporter (input ligand: arginine 13.2 mM): 264 nM
apparent KD of K4 kissing-loop reporter (input ligand: none): 346 nM
apparent KD of K4 kissing-loop reporter [1]: 452 nM
apparent KD of K4 kissing-loop reporter [2]: 268 nM

CCAUUCUUUUACGAUACCAGUUUAAUAUAUUUAUUCAAAACCCUUGCCGAGUGAUGUUCGGACCCUUGGCAGCGUUUGCGAGAGG [ttedstkmullin]
apparent KD of K4 kissing-loop reporter (input ligand: FMN 200 uM): 455 nM
apparent KD of K4 kissing-loop reporter (input ligand: arginine 13.2 mM): 376 nM
apparent KD of K4 kissing-loop reporter (input ligand: none): 465 nM
apparent KD of K4 kissing-loop reporter [1]: 434 nM
apparent KD of K4 kissing-loop reporter [2]: 356 nM

UAUUCUGUUCGAAAGAACGGAAUUUCGGAAGGAGCGAGAGAAAUCUCAGGUAGGUCGCCGAAAUUAUUAGAUAGUGAUGUUAUCU [Arginine A K4 4]
apparent KD of K4 kissing-loop reporter (input ligand: FMN 200 uM): 162 nM
apparent KD of K4 kissing-loop reporter (input ligand: arginine 13.2 mM): 110 nM
apparent KD of K4 kissing-loop reporter (input ligand: none): 135 nM
apparent KD of K4 kissing-loop reporter [1]: 177 nM
apparent KD of K4 kissing-loop reporter [2]: 158 nM
